Assay in all cases: cell_activity
For series [1], the system named is TALE nuclease pair BnFAD2_T01 (synthetic construct). The settings on record: Westar protoplasts.
The test system of series [2] is TALE nuclease pair BnFAD2_T02 (synthetic construct). The settings on record: Westar protoplasts.
The subject of series [3] is TALE nuclease pair BnFAD2_T07 (synthetic construct). The settings on record: Westar protoplasts.
Series [4] deals with TALE nuclease pair BnFAD2_T05 (synthetic construct).
Series [5] concerns TALE nuclease pair BnFAD2_T03 (synthetic construct). Conditions: Westar protoplasts.

The sequence “TCCCCCACCCTCTCCCTTACCTCGCCTGGCCCCTCTACTGGGCCTGCCA (double strand) [BnFAD2_T01 site in BnaC.FAD2.b (SEQ ID NO:15)]” displayed an activity (% mutagenesis) in series [1] (BnaC.FAD2.b, mismatched site) of 1.9.
Turning to “TCCCTCACCCTCTCTCCTACTTCGCCTGGCCTCTCTACTGGGCCTGCCA (double strand) [BnFAD2_T01 site in BnaA/BnaC.FAD2.a (SEQ ID NO:8)]”, the activity (% mutagenesis) in series [1] (BnaA.FAD2.a, 25 C, 2 days, half-sites not demarcated) amounted to 8.3; in series [1] (BnaC.FAD2.a, 25 C, 2 days) it was 10.
Turning to “TCGTCCCTTACTTCTCCTGGAAGTACAGTCATCGACGCCACCATTCCAA (double strand) [BnFAD2_T02 site in BnaA/BnaC.FAD2.a (SEQ ID NO:9)]”, the activity (% mutagenesis) was determined as 9.7 in series [2] (BnaA.FAD2.a) and 10.3 in series [2] (BnaC.FAD2.a).
“TCGTCCCTTACTTCTCCTGGAAGTACGGCCATCGACGCCACCATTCCAA (double strand) [BnFAD2_T02 site in BnaC.FAD2.b (SEQ ID NO:17)]” had an activity (% mutagenesis) in series [2] (BnaC.FAD2.b) of 5.5.
For the sequence “TCTGGGTCATAGCCCACGAGTGCGGCCACCACGCCTTCAGCGACTACCA (double strand)”, the activity (% mutagenesis) in series [3] (BnaA.FAD2.a) worked out at 2.2; in series [3] (BnaC.FAD2.a), 2.8; in series [4] (BnaA.FAD2.a, Westar protoplasts), 3.8; in series [4] (BnaC.FAD2.a, Westar protoplasts), 4.4.
With “TCTGGGTCATCGCCCACGAATGCGGCCACCACGCCTTCAGCGACCACCA (double strand) [BnFAD2_T05/T07 site in BnaC.FAD2.b (SEQ ID NO:14)]”, the activity (% mutagenesis) in series [3] (BnaC.FAD2.b) is 2.6; in series [4] (BnaC.FAD2.b, printed as 23 but 1549/67387 reads = 2.3), 2.3.
In the case of “TGCGAGACACCACCCTTCACTCTCGGAGACCTCAAGAAAGCAATCCCA (double strand) [BnFAD2_T03 site in BnaC.FAD2.b (SEQ ID NO:19)]”, the activity (% mutagenesis) in series [5] (BnaC.FAD2.b) stood at 10.
In the case of “TGCGAGACACCGCCCTTCACTGTCGGAGAACTCAAGAAAGCAATCCCA (double strand) [BnFAD2_T03 site in BnaA/BnaC.FAD2.a (SEQ ID NO:10)]”, the activity (% mutagenesis) in series [5] (BnaA.FAD2.a) came to 9; in series [5] (BnaC.FAD2.a), 9.8.

(Values after patent US20210277411.)
